The source of these data is US20230105029A1 (CHIA TAI TIANQING PHARMACEUTICAL GROUP, published 2023).

Read-outs that look alike come from different tables or passages of the source.

Test [1] has as its target human IL4Rα expressed on HEK293T-IL4Rα-STAT6-STAT6LUC-LB2 cells (human, UniProt P24394 26-825). In words: cell-based or functional assay.
Test [2] has as its target T1, recombinant human IL4Rα-his protein (in house made) (human, UniProt P24394 26-232, limits assumed).
T1 construct: also called Human IL4Ra-his
In words: capture ELISA, biotin-IL4Rα-his.

Test [3] concerns the target T2, human IL4Rα expressed on 293F-IL4Rα cells (human, UniProt P24394 26-825).
T2 construct: whole, on cells; also called cell surface human IL4Rα
In words: flow cytometry, 293F-IL4Rα cells. Here is the method: Then, 2×10⁵ cells per well in 96 well-plates were incubated in 100 μL of the anti-IL4Rα antibodies or controls of various concentrations (starting at 80 nM with a 4-fold serial dilution) in FACS buffer for 40 minutes on ice. […] Following an incubation of 40 minutes at 4° C. in dark, cells were washed three times and resuspended in FACS buffer. Fluorescence was measured using a Becton Dickinson FACS Canto II-HTS equipment. Data was analyzed using Graphpad Prism software and EC₅₀ values were reported.

The target in test [4] is T3, marmoset monkey IL4Rα-his protein (marmoset monkey).
T3 construct: Custom made by Sino biological; no cleavage site stated; also called cal-IL4Rα-his; Cal-IL4Rα
T3 chain: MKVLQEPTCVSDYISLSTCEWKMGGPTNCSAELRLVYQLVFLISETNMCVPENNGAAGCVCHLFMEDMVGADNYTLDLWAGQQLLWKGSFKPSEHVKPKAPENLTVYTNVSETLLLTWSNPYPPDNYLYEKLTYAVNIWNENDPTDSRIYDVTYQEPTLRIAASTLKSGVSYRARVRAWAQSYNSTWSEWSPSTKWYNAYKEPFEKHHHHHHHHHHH
In words: indirect ELISA, coated cal-IL4Rα-his. For orientation: In an ELISA, binding on a coated surface is turned into a signal by an enzyme label.

In test [5] the target is T4, cynomolgus monkey IL4Rα-his protein (cynomolgus monkey, UniProt A0A2K5V580 33-239).
T4 construct: Bought protein; also called Cynomolgus IL4Rα; Cyno-IL4Rα-his; not shown: his tag
The test is described as follows: indirect ELISA, coated cyno IL4Rα-his.

In test [6] the target is T2, human IL4Rα expressed on 293F-IL4Rα …. In words: flow cytometry on 293F-IL4Rα cells. For orientation: A flow cytometer gives signals particle by particle.
The target in test [7] is T3, marmoset monkey IL4Rα-his protein. In words: indirect ELISA on coated cal-IL4Rα-his.
Test [8] concerns the target T1, recombinant human IL4Rα-his protein (in …). The test is described as follows: SPR (Biacore), antibody captured, IL4Rα-his flowed.
The target is the same in test [9]. The test is described as follows: SPR (Biacore), antibody captured, IL4Rα-his flowed. The source holds these as a separate data set. A general note: In SPR one partner is held on a chip, and binding of the other changes the refractive index at the surface.
The target in test [10] is T4, cynomolgus monkey IL4Rα-his protein. In words: indirect ELISA on coated cynomolgus IL4Rα-his.
Test [11] addresses T2, human IL4Rα expressed on 293F-IL4Rα …. The test is described as follows: flow cytometry, blocks biotin-IL4 binding to 293F-IL4Rα cells. Here is the method: Then, 1×10⁵ cells per well in 96 well-plates were incubated in 100 μL of the anti-IL4Rα antibodies or controls of various concentrations (starting at 80 nM with a 4-fold serial dilution) in FACS buffer for 40 minutes on ice. The plates were washed twice with FACS buffer, and added and incubated for 40 minutes at 4° C. in dark with 100 μl/well 1.67 nM biotin-labeled human IL4 protein (Sino biological inc., Cat #11846-HNAE). The plates were washed twice with FACS buffer, and then added and incubated for 40 minutes at 4° C. in dark with 100 μl/well R-Phycoerythrin Streptavidin (1:500 dilution in FACS buffer, Jackson Immunoresearch, Cat #016-110-084). Cells were washed twice and resuspended in FACS buffer. Fluorescence was measured using a Becton Dickinson FACS Canto II-HTS equipment. Data was analyzed using Graphpad Prism software and IC₅₀ values were reported.

For test [12], the target named is T1, recombinant human IL4Rα-his protein (in …). The test is described as follows: competitive ELISA, blocks biotin-IL4 binding to coated IL4Rα-his. Here is the method: Serially diluted anti-IL4Rα antibodies or the controls (starting at 80 nM with a 4-fold serial dilution) in 2.5% w/v non-fatty milk in PBST, 100 μl per well, were added to the IL4Rα bound plates, and incubated with the human IL4Rα-his proteins at 37° C. for 40 minutes. Plates were washed 4 times using wash buffer, and then added and incubated for 40 minutes at 37° C. with 100 μl/well of 0.56 nM biotin-labeled human IL4 protein (Sino biological inc., Cat #11846-HNAE). Plates were washed again using wash buffer. Thereafter, the plates were added with 100 μl/well of streptavidin conjugated HRP (1:10000 dilution in PBST buffer, Jackson Immunoresearch, Cat #016-030-084) and incubated for 40 minutes at 37° C. Plates were washed again using wash buffer. Finally, TMB was added and the reaction was stopped using 1M H₂SO₄, and the absorbance was read at 450 nm. Data was analyzed using Graphpad Prism software and IC₅₀ values were reported.

In test [13] the target is T2, human IL4Rα expressed on 293F-IL4Rα …. The test is described as follows: flow cytometry on 293F-IL4Rα cells, blocked ligand biotin human IL4.
In test [14] the target is T1, recombinant human IL4Rα-his protein (in …). In words: competitive ELISA, blocks biotin-IL4Rα-his binding to coated Benchmark (competitor). Here is the method: The ability of the anti-IL4Rα antibodies of the disclosure to block benchmark-human IL4Rα binding was measured in a competitive ELISA assay. Briefly, the benchmark was coated on 96-well micro plates at 2 μg/mL in PBS, 100 μl per well, and incubated overnight at 4° C. The next day, plates were washed with wash buffer (PBS+0.05% w/v Tween-20, PBST), and blocked with 5% w/v non-fatty milk in PBST for 2 hours at 37° C. tiring plate blocking, the anti-IL4Rα antibodies of the disclosure or controls were diluted with biotin labeled human IL4Rα-his proteins (prepared in-house with SEQ ID NO: 57, 0.55 nM in 2.5% w/v non-fatty milk in PBST), starting at 100 nM with a 4-fold serial dilution, and incubated at 25° C. for 40 minutes. After plate washing, the antibody/IL4Rα-his mixtures were added to benchmark coated plates, 100 μl per well. After incubation at 37° C. for 40 minutes, plates were washed using wash buffer. Then the plates were added and incubated with 100 μl/well streptavidin conjugated HRP for 40 minutes at 37° C. to detect biotin-labeled human IL4Rα-his bound to plates. Plates were washed again using wash buffer. Finally, TMB was added and the reaction was stopped using 1M H₂SO₄, and the absorbance was read at 450 nm. Data was analyzed using Graphpad Prism software and IC₅₀ values were reported.

Test [15] shares this target. The test is described as follows: competitive ELISA: coated human IL4Rα-his, blocked ligand biotin human IL4.
The target is the same in test [16]. The test is described as follows: capture ELISA: antibody captured on anti-IgG Fc plate, biotin human IL4Rα-his detected.
Test [17] shares this target. The test is described as follows: competitive ELISA: antibody mixed with biotin human IL4Rα-his, competitor plate-coated Benchmark.

B1: huC2C1A1A1-V14 (antibody, human IgG4 S228P, kappa, V domains shown)
VH: EVQLVESGGGLVQPGGSLRLSCAASGFTFSTYGMSWVRQAPGKGLVWVATINSNGGSTSYPDSVKGRFTISRDNAKNTLYLQMNSLRAEDTAVYYCARFFRFRNAMDYWGQGTLVTVSS
VL: DIQMTQSPSSLSASVGQRVTITCRTSENIYSYLAWYQQKQGKPPRFLIYNAKTLAEGVPSRFSGSGSGTEFTLTITSLQAEDFGVYYCQHYYGPPTWTFGPGTKLEIKR
notes: Humanized, human IgG4/kappa
On to B1, for which the “Inhibition on IL4 induced STAT6 phosphorylation (IC50, nM)” value in test [1] amounted to 0.64 nM. The “Inhibition on IL13 induced STAT6 phosphorylation (IC50, nM)” value in [1] is 0.73 nM. Further, the EC50 – broadly, the concentration that produces a half-maximal response – in test [2] was determined as 0.06 nM; in test [3], 0.39 nM; in test [4] it was 0.55 nM; in [5], 0.68 nM; in test [6] it was 0.39 nM; in [7], 0.555 nM. For the same molecule, the EC50 in test [10] amounted to 0.677 nM; in [16] it was 0.0616 nM. For the same molecule, in [8], the Dissociation % turned out to be 0.8%. In test [8], the “End (RU)” value stood at 50.5 RU. For the same molecule, the results for the Kd in test [8] and in test [9] were less than 0.0654 nM and 0.642 nM, respectively. In addition, the “Start (RU)” value in [8] is 50.1 RU. The koff (as a rule, the rate constant with which the complex falls apart) in [8] was less than 1e-05 s⁻¹. Also, the kon – broadly, the rate constant with which the complex forms – in [8] is 153000 M⁻¹ s⁻¹. Also, the IC50 (in general, the concentration needed to halve the response being measured) in test [11] turned out to be 0.58 nM; in [12], 2.17 nM; in test [13], 0.578 nM; in test [14], 0.17 nM; in test [15], 2.17 nM; in [17], 0.171 nM.

B2: huC2C1A1A1-V15 (antibody, human IgG4, V domains shown)
VH: EVQLVESGGGLVQPGGSLRLSCAASGFTFSTYGMSWVRQAPGKGLVWVATINSNGGSTSYPDSVKGRFTISRDNAKNTLYLQMNSLRAEDTAVYYCARFFRFRNAMDYWGQGTLVTVSS
VL: DIQMTQSPSSLSASVGDRVTITCRTSENIYSYLAWYQQKPGKAPKFLVYNAKTLAEGVPSRFSGSGSGTDFTLTISSLQPEDFATYYCQHYYGPPTWTFGQGTKVEIKR
notes: Humanized, human IgG4/kappa
For B2, the “Inhibition on IL4 induced STAT6 phosphorylation (IC50, nM)” value in [1] stood at 0.61 nM. In addition, the “Inhibition on IL13 induced STAT6 phosphorylation (IC50, nM)” value in [1] came out at 0.6 nM. The EC50 in test [2] stood at 0.05 nM; in test [3], 0.31 nM; in test [4], 0.41 nM; in [5] it was 0.52 nM; in [6] it was 0.311 nM; in test [7] it was 0.412 nM. For the same molecule, the EC50 in test [10] amounted to 0.517 nM; in [16], 0.0474 nM. The Dissociation % in [8] is 0.29%. Further, in [8], the “End (RU)” value stood at 69.2 RU. In addition, the Kd (commonly a measure of binding affinity in units of concentration) in test [8] was less than 0.0435 nM; in test [9], 0.447 nM. Moreover, in [8], the “Start (RU)” value was found to be 69 RU. For the same molecule, the koff in test [8] is less than 1e-05 s⁻¹. Also, the kon in test [8] is 230000 M⁻¹ s⁻¹. Further, the half-inhibitory concentration (IC50) in test [11] was 0.5 nM; in test [12], 2.03 nM; in test [13], 0.502 nM; in test [14] it was 0.16 nM; in test [15] it was 2.03 nM; in test [17] it was 0.159 nM.
